According to paper PMC4159253:

Target: F241A IgG1 Fc fragment (human)
Test: crystal structure

With “F241A IgG1 Fc fragment (domain or fragment)” the stoichiometry N was 2.
